PMC5405867 (Nature structural & molecular biology, 2017)
Changes are numbered by the printed parent chain. Names may count otherwise. Values belong to the binder of their own block, whether it stands above or below them.

What was measured:
[1] = molecular target: T1, human USP18 (residues 16-372), tag removed (human, UniProt Q9UMW8 16-372); assay: covalent adduct formation with an active-site probe
T1 sequence (looked up): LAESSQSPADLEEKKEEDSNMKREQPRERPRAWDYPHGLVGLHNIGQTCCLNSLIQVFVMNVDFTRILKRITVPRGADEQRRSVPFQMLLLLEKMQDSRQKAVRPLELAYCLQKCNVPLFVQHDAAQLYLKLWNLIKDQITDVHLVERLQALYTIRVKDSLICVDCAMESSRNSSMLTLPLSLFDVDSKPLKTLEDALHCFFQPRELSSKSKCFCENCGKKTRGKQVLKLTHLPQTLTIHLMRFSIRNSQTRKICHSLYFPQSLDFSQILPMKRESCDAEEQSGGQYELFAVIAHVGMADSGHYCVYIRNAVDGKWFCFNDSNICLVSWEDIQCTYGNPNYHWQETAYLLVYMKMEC

[2] = molecular target: T2, murine USP18^IBB-2-USP7, His6-tagged (mouse, UniProt Q9WTV6 1-368, residues 256-263 (S-A-R-N-S-R-T-E) replaced by the corresponding residues …); assay: cell-based or functional assay
T2 sequence (looked up): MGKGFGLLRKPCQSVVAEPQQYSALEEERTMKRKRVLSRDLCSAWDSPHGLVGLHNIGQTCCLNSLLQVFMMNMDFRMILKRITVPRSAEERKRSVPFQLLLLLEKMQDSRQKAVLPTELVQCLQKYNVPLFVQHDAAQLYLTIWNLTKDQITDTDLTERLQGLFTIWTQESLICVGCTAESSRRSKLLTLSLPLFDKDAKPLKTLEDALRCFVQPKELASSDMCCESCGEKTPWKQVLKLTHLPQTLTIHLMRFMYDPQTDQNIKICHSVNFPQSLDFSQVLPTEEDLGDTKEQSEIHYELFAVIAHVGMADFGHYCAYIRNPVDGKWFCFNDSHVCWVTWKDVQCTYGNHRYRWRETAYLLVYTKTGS

[3] = molecular target: T3, murine USP18 catalytic core (residues 46-368), His6-tagged (mouse, UniProt Q9WTV6 46-368); assay: SPR
T3 sequence (looked up): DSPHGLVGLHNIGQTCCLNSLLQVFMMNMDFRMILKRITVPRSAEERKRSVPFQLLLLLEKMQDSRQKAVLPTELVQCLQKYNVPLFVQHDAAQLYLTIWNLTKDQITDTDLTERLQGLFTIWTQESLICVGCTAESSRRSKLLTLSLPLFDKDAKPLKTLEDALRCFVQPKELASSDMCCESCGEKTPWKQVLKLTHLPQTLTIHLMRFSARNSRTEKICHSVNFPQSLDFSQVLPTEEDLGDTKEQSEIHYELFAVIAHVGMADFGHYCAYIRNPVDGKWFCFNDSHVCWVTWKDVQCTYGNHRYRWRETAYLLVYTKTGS

- binding result [1]: binds
B1: mouse ISG15-PA (full-length ISG15 propargylamide probe, residues 1-154, C76S) (natural protein, UniProt Q64339 1-154, looked up)
chain: MAWDLKVKMLGGNDFLVSVTNSMTVSELKKQIAQKIGVPAFQQRLAHQTAVLQDGLTLSSLGLGPSSTVMLVVQNSSEPLSILVRNERGHSNIYEVFLTQTVDTLKKKVSQREQVHEDQFWLSFEGRPMEDKELLGEYGLKPQCTVIKHLRLRG
modifications: C-terminal propargylamide (PA)

- catalytic activity towards ISG15-FP, percent of wild type [2]: 65 % of wt activity
- Kd [3]: 1490 ± 30 nM
B2: mouse ISG15 (residues 1-155, C76S) (natural protein, UniProt Q64339 1-155, looked up)
chain: MAWDLKVKMLGGNDFLVSVTNSMTVSELKKQIAQKIGVPAFQQRLAHQTAVLQDGLTLSSLGLGPSSTVMLVVQNSSEPLSILVRNERGHSNIYEVFLTQTVDTLKKKVSQREQVHEDQFWLSFEGRPMEDKELLGEYGLKPQCTVIKHLRLRGG

- stoichiometry N [3]: 0.4 ISG15 per immobilized USP18
B3: mouse ISG15-W121R (C76S) (natural protein, UniProt Q64339 1-155, looked up)
chain: B2 chain with W121R
